According to article PMC12238353 (Scientific Reports, 2025):
Each block holds one binder with its values, some of them ahead of it.

What was measured:
[1] = molecular target: His-tagged IgD (SpyTagged HAPPID1: human anti-Phl p 7 IgD 102.1F10 with SpyTag003 and His6-tag on the heavy chain) (human) (UniProt P01880); assay: SPR; His-tagged IgD (100 nM) captured on an anti-His chip (CM5); two-fold dilution series of TEV-cleaved Nbs, 200 nM to 1.6 nM, flowed over; Biacore T200, 25 °C, 10 mM HEPES pH 7.4, 150 mM NaCl, 0.05% P20; koff from mono- or biphasic decay, kon from kobs against concentration, KD = koff/kon
[2] = molecular target: IgD on Namalwa B cells (membrane-bound IgD) (human (endogenous in Namalwa)) (UniProt P01880); assay: flow cytometry on cells; Namalwa cells incubated with 1 µM AF488-labeled Nb:Catcher fusion in PBS pH 7.3, 1% BSA, 0.1% NaN3, 1 h at 4 °C (1 µM, 500 nM and 250 nM for titration); median fluorescence intensity
[3] = molecular target: IgD-Fc (Fc region of human IgD, SpyTagged) (human); assay: SEC; complexes of Nb and IgD-Fc with IgD-Fc at 2 µM, incubated overnight at 4 °C; Superdex 200 Increase 10/300 GL in HBS-az at 10 °C
[4] = molecular target: T1, Phl p 7 (antigen of HAPPID1) on an SA chip (Phleum pratense (common timothy), UniProt O82040); assay: SPR; IgD (HAPPID1) captured by its antigen Phl p 7 on an SA chip; 25 nM aδNb408 or aδNb408-Nb pairs flowed over; 25 °C, running buffer with 5 mM CaCl2; details: both partners purified
T1 construct: Held on a streptavidin chip; also called SA-Phl p 7 chip
T1 sequence (O82040 whole entry): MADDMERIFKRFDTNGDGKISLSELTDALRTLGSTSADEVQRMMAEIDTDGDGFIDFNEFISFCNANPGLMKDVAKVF

Chain of IgD on Namalwa B cells (membrane-bound IgD) (human (endogenous in Namalwa)) (P01880 whole entry, looked up, the tested form may be a part): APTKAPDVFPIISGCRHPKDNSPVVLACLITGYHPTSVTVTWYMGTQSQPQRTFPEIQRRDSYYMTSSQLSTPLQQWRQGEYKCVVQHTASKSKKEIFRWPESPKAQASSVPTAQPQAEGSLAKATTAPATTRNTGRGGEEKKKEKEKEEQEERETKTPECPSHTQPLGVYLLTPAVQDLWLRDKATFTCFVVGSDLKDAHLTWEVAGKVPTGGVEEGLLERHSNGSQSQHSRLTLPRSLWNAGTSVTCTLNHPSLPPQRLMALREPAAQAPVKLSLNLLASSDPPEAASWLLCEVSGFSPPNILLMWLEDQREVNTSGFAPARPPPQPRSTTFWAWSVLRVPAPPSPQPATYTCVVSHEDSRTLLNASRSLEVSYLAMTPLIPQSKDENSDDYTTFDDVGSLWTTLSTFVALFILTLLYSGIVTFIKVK

B2: AF488-labeled monovalent aδNb571 (SpyTagged aδNb571 reacted with AF488-labeled SpyCatcher003) (VHH)
VHH: QVQLQESGGGLVQPGGSLRLSCAASGTPFSASVMAWYRQAPGKERVWVATITSDSMTYYADSVNGRFTISRDNAKSTVYLQMNSLKPEDTAAYICRHAASASWGQGTQVTVSS
MFI [2]: 921

B4: His-tagged anti-IgD Nb 367 (aδNb367) (VHH)
VHH: QVQLQESGGGLVQPGGSLRLACAASGFSLSTYTMSWVRQSPGKGLEWVSTITSDGGWTSYRDSVKGRFTISRDNAKNTLYLQMNSLNPEDTAVYYCRRGVGVVRGERPGGQGTQVTVSS
stoichiometry N [3]: 2 Nb:IgD

B5: AF488-labeled monovalent aδNb367 (SpyTagged aδNb367 reacted with AF488-labeled SpyCatcher003) (VHH)
VHH: B4 VHH
MFI [2]: 1450

B9: AF488-labeled monovalent aδNb107 (SpyTagged aδNb107 reacted with AF488-labeled SpyCatcher003) (VHH)
VHH: QVQLQESGGGLVQAGASLRLSCTASERTFSPYAMGWFRQAPGREREVIASIFWTGGNTGYADSVKGRFTISRDTAKNTVYLQMSNLKPEDTAVYYCGARTSASAPIYGLWGQGTQVTVSS
MFI [2]: 662

B10: His-tagged anti-IgD Nb 107 (aδNb107) (VHH)
VHH: B9 VHH
stoichiometry N [3]: 2 Nb:IgD

B12: AF488-labeled monovalent aδNb408 (SpyTagged aδNb408 reacted with AF488-labeled SpyCatcher003) (VHH)
VHH: QVQLQESGGGLVQAGDSLRLSCVASGRSISNDAMAWFRQAPGKEREFVAAITWRYSNTHYSDSVKDRFTISRDNAKNTVYLQMNSLKPEDTADYYCAADRRGTGASSYSRDYDYWGQGTQVTVSS
MFI [2]: 1340

B13: His-tagged anti-IgD Nb 408 (aδNb408) (VHH)
VHH: B12 VHH
stoichiometry N [3]: 2 Nb:IgD

Now from value to binder:

Kd [1]: 0.66 nM
koff [1]: 0.0012 s⁻¹
kon [1]: 1.8e+06 M⁻¹ s⁻¹
B1: anti-IgD Nb 571 (aδNb571), TEV-cleaved (VHH)
VHH: B2 VHH

stoichiometry N [3]: 1 Nb:IgD
B3: His-tagged anti-IgD Nb 571 (aδNb571) (VHH)
VHH: B2 VHH

Kd [1]: 2.4 nM
koff [1]: 0.00047 s⁻¹
kon [1]: 200000 M⁻¹ s⁻¹
B6: anti-IgD Nb 367 (aδNb367), TEV-cleaved (VHH)
VHH: B4 VHH

binding result [4]: binds
B7: human anti-Phl p 7 IgD 102.1F10 (HAPPID1) (antibody, V domains shown)
VH: QVQLVQSGAEVRNPGASVKVSCKASGYTFTSYAIHWVRQAPGHRLEWVGRINTDNGNTKYSQKFHGRVALSRDTSASTTYMDLSSLNSEDTAVYYCARAFYYSSGVMFDSWGQGALVTVSS
VL: QSALTQPPSVSGAPGQRVSISCTGGSSNFGAGYDVHWYQQLPATAPKLLIYGNNNRPSGVPDRFSGSKSGTSASLAITGLQAEDEGDYFCQSFDTSLSGWIFGGGTKLTVL
notes: heavy-chain variable domain of the human anti-Phl p 7 antibody 102.1F10; pVITRO1-HAPPID1 at Addgene; human immunoglobulin heavy constant delta, secreted form; UniProt P01880-1 is printed for the IgD-Fc used in this study; light chain of 102.1F10; also called full-length IgD; source: stably transfected FreeStyle 293-F cells; copies: 2 + 2

KD1 [1]: 3.2 nM
KD2 [1]: 22 nM
koff1 [1]: 0.00066 s⁻¹
koff2 [1]: 0.0046 s⁻¹
kon [1]: 210000 M⁻¹ s⁻¹
B8: anti-IgD Nb 107 (aδNb107), TEV-cleaved (VHH)
VHH: B9 VHH

KD1 [1]: 0.89 nM
KD2 [1]: 5.2 nM
koff1 [1]: 0.00074 s⁻¹
koff2 [1]: 0.0043 s⁻¹
kon [1]: 820000 M⁻¹ s⁻¹
B11: anti-IgD Nb 408 (aδNb408), TEV-cleaved (VHH)
VHH: B12 VHH
